Series [1] concerns the target T1, Ubiquitin-PLA2mX fusion (UniProt Q9QXX3).
T1 sequence: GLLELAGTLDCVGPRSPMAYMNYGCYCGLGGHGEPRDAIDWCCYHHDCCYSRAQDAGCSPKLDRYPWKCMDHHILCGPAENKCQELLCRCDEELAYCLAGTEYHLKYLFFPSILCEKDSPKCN

Series [2] concerns the target ISG15-PLA2mX fusion (mouse) (UniProt Q9QXX3). Briefly: cell-based or functional assay.

On to “core domain of USP2 (shared core enzymatic domain of the spliced USP2 product, either USP2a or USP2b)”, for which, in series [1], the Ratio of PLA2 activity, fusion with isopeptidase over fusion without amounted to 9.37 and the “cleavage of the fusion by SDS-PAGE (10 ug fusion, 3 ug core domain of USP2)” value was “complete cleavage of the fused Ub-PLA2mX was seen”.
In series [2], “UBP43, the ISG15-specific isopeptidase (enzyme)” gave a rate of PLA2 activity (fluorescent lipid substrate), extracts of UBP43-transfected against non-transfected HEK293T cells of 4 fold.

The record behind these values is patent US7842460.
